Results reported in patent US20130143318A1 (BOARD OF REGENTS OF THE UNIVERSITY OF OKLAHOMA, published 2013).

Experiments:
mouse Rrn3 = target: T1, mouse Rrn3 (mouse, UniProt B2RS91 1-656, limits assumed); experiment: yeast two-hybrid
T1 construct: Two-hybrid fusion partner not described; also called mRrn3

human Rrn3 = target: T2, human Rrn3 (human, UniProt Q9NYV6 1-651, limits assumed); experiment: yeast two-hybrid
T2 construct: Two-hybrid fusion partner not described; also called hRrn3
T2 sequence (Q9NYV6 whole entry, the tested form may be a part): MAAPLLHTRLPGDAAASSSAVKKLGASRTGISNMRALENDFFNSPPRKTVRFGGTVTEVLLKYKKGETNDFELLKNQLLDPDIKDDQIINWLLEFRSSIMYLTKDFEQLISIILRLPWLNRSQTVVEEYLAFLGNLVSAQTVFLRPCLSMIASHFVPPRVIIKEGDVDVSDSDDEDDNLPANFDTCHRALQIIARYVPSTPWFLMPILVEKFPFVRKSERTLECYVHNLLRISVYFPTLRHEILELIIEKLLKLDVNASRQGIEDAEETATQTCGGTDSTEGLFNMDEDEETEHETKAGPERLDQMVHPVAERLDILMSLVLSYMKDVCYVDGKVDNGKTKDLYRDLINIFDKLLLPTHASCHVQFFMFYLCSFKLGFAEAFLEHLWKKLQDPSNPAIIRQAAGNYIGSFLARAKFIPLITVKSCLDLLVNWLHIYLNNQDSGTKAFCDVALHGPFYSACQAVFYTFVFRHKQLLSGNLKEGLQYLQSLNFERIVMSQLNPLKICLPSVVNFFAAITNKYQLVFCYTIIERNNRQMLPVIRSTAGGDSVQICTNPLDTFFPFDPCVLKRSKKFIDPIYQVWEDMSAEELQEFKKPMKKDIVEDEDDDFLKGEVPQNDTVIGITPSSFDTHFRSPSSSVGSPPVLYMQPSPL

T1 sequence (B2RS91 whole entry, the tested form may be a part): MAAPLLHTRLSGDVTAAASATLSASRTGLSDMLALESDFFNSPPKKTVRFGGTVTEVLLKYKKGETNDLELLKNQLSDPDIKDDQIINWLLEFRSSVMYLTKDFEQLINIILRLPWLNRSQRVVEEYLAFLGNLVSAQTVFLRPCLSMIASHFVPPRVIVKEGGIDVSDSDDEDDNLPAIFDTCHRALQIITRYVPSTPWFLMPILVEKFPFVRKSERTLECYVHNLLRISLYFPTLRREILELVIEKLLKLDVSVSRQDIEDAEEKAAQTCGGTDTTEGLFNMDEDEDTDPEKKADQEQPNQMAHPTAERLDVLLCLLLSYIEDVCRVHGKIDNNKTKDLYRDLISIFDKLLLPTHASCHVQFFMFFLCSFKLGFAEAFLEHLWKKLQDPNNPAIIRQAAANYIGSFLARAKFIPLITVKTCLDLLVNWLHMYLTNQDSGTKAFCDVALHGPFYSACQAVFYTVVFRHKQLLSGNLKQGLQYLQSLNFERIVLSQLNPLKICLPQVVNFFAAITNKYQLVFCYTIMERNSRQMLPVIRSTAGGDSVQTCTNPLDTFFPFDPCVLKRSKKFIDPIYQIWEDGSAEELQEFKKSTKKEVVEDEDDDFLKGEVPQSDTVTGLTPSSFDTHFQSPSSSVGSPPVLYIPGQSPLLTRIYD

binding result (mouse Rrn3): binds
binding result (human Rrn3): binds
B1: mouse Rpa43 (43 kDa subunit of RNA polymerase I), wild type (other, UniProt Q78WZ7 1-330, looked up)
chain: MAAGSVESQRSQAASERPVAGQAGVLPCLELPSYAAACALVGSRYSCLVAAPHRRHIALSPRYLSRKRTGIREQLDAELLRYSESLLGVPIAYDNIRVVGELGDIYDDQGHIHLNIEADFVIFCPEPGQTLMGTVNKVSSSHIGCLVHGCFNASIPKPEQMSYEEWQTLEIHVGDELEFDVFRLDSDSAGVFCIRGKLSTTSLQLKHSAVSEDVAETVVEEVVEKTPKKKKKKKDKDTDTCGTVDSVTEVADVTDVTPQEETDIPCSDNVNDFFEEEPKKKKKKKKRHQEDQDPIFQASDSSGYQSDHNKKKKKRKHSEEANFESPKKRQ
notes: also called mRPA43; wild type Rpa43
